± gives the uncertainty stated by the source.
Experiment: self-splicing fitness, log relative to wild type (ln ratio); higher = more splicing; Tetrahymena group I intron in knt gene, E. coli kanamycin selection, DiMSum; sequences stand for … in CUCUCU…GGAGGGAAAAGUUAUCAGGCAUGCACCUGGUAGCUAGUCUUUAAACCAAUAGAUUGCAUCGGUUUAAAAGGCAAGACCGUCAAAUUGCGGGAAAGGGGUCAACAGCCGUUCAGUACCAAGUCUCAGGGGAAACUUUGAGAUGGCCUUGCAAAGGGUAUGGUAAUAAGCUGACGGACAUGGUCCUAACCACGCAGCCAAGUCCUAAGUCAACAGAUCUUCUGUUGAUAUGGAUGCAGUUCACAGACUAAAUGUCGGUCGGGGAAGAUGUAUUCUUCUCAUAAGAUAUAGUCGGACCUCUCCUUAAUGGGAGCUAGCGGAUGAAGUGAUGCAACACUGGAGCCGCUGGGAACUAAUUUGUAUGCGAAAGUAUAUUGAUUAGUUUUGGAGUACUCGUGGUCG
Procedure, shortened: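 The eight P1ex-region nucleotides of an intron in the knt kanamycin-resistance gene on pET-22b(+) were all randomised and the library put into E. coli BL21(DE3). Six replicate transformations were grown overnight at 37°C or 30°C on LB agar with or without 25 μg/mL kanamycin, together with 100 μg/mL carbenicillin, 50 μM IPTG and 0.2% rhamnose. Colonies were pooled and amplicon-sequenced on an Illumina HiSeq 2500. Fitness from DiMSum is the error-weighted combination of wild-type-normalised replicate fold changes, kanamycin over none.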

| Sequence | self-splicing fitness (ln) (30 °C) | self-splicing fitness (ln) (37 °C) |
| --- | --- | --- |
| UCGAAGCAAUAUUACGAGAC | -3.11 ± 0.22 | – |
| UCGAAGCAAUAUUACGAUGU | -1.82 ± 0.067 | -0.546 ± 0.085 |
| UCGAAGCAAUAUUACGCCAA | -2.4 ± 0.27 | -2.2 ± 0.37 |
| UCGAAGCAAUAUUACGCUAC | -2.18 ± 0.26 | – |
| UCGAAGCAAUAUUACGGCAU | -3.26 ± 0.2 | -1.62 ± 0.24 |
| UCGAAGCAAUAUUACGGCGG | -1.14 ± 0.11 | -0.364 ± 0.17 |
| UCGAAGCAAUAUUACGGGGG | -1.86 ± 0.18 | -1.39 ± 0.2 |
| UCGAAGCAAUAUUACGGGGU | -4.05 ± 0.21 | -2.25 ± 0.17 |
| UCGAAGCAAUAUUACGGGUA | -0.839 ± 0.062 | -0.123 ± 0.068 |
| UCGAAGCAAUAUUACGGUGG | -1.82 ± 0.094 | -1.55 ± 0.14 |
| UCGAAGCAAUAUUACGUAGC | – | -2.17 ± 0.31 |
| UCGAAGCAAUAUUACGUCGA | -3.65 ± 0.47 | -1.78 ± 0.19 |
| UCGAAGCAAUAUUACGUUGA | -2.05 ± 0.099 | -2.63 ± 0.13 |
| UCGCAGCAAUAUUACGAAAC | – | -3.1 ± 0.35 |
| UCGCAGCAAUAUUACGAACU | -3.13 ± 0.19 | -1.69 ± 0.17 |
| UCGCAGCAAUAUUACGAAGC | -3.52 ± 0.27 | -2.25 ± 0.25 |
| UCGCAGCAAUAUUACGACGG | -1.15 ± 0.069 | -0.0065 ± 0.1 |
| UCGCAGCAAUAUUACGACUG | -1.93 ± 0.14 | -2.7 ± 0.25 |
| UCGCAGCAAUAUUACGAGAA | -1.41 ± 0.34 | -0.949 ± 0.21 |
| UCGCAGCAAUAUUACGAUAU | -3.68 ± 0.3 | -2.41 ± 0.27 |
| UCGCAGCAAUAUUACGCGAG | -2.85 ± 0.15 | -2.56 ± 0.15 |

| Sequence | self-splicing fitness (ln) (30 °C) | self-splicing fitness (ln) (37 °C) |
| --- | --- | --- |
| UCGCAGCAAUAUUACGCUUU | -3.69 ± 0.18 | -1.84 ± 0.13 |
| UCGCAGCAAUAUUACGGCUG | -3.46 ± 0.24 | -2.45 ± 0.32 |
| UCGCAGCAAUAUUACGUCCA | -0.754 ± 0.086 | -0.0511 ± 0.094 |
| UCGCAGCAAUAUUACGUGAC | -5.1 ± 0.38 | -2.41 ± 0.26 |
| UCGCAGCAAUAUUACGUUGA | -3.11 ± 0.23 | -1.06 ± 0.14 |
| UCGGAGCAAUAUUACGAUCG | -1.22 ± 0.15 | -0.115 ± 0.15 |
| UCGGAGCAAUAUUACGCAUG | -3.6 ± 0.22 | -1.38 ± 0.17 |
| UCGGAGCAAUAUUACGCCGA | -3.12 ± 0.32 | – |
| UCGGAGCAAUAUUACGCUUU | – | -2.3 ± 0.49 |
| UCGGAGCAAUAUUACGGAUA | -2.51 ± 0.35 | -1.96 ± 0.29 |
| UCGGAGCAAUAUUACGGAUC | -3.21 ± 0.43 | – |
| UCGGAGCAAUAUUACGGUAG | -3.8 ± 0.35 | -2.8 ± 0.28 |
| UCGGAGCAAUAUUACGGUGU | -3.4 ± 0.31 | -1.7 ± 0.37 |
| UCGGAGCAAUAUUACGUACC | -2.84 ± 0.48 | – |
| UCGGAGCAAUAUUACGUCAC | -3.68 ± 0.43 | -2.68 ± 0.36 |
| UCGGAGCAAUAUUACGUCAG | – | -1.11 ± 0.34 |
| UCGGAGCAAUAUUACGUCUG | -2.56 ± 0.19 | -0.878 ± 0.24 |
| UCGGAGCAAUAUUACGUGCG | -2.06 ± 0.093 | -1.32 ± 0.11 |
| UCGGAGCAAUAUUACGUUAC | -1.87 ± 0.3 | – |
| UCGGAGCAAUAUUACGUUGA | -2.58 ± 0.25 | -1.22 ± 0.16 |
| UCGGAGCAAUAUUACGUUUU | -3.91 ± 0.4 | – |

| Sequence | self-splicing fitness (ln) (30 °C) | self-splicing fitness (ln) (37 °C) |
| --- | --- | --- |
| UCGUAGCAAUAUUACGACUA | -1.41 ± 0.19 | -0.0995 ± 0.15 |
| UCGUAGCAAUAUUACGAUCU | -1.92 ± 0.3 | -1.67 ± 0.37 |
| UCGUAGCAAUAUUACGAUGA | -0.769 ± 0.12 | -0.601 ± 0.13 |
| UCGUAGCAAUAUUACGCAAU | -3.7 ± 0.47 | -1.99 ± 0.31 |
| UCGUAGCAAUAUUACGCACG | -1.8 ± 0.23 | -0.584 ± 0.2 |
| UCGUAGCAAUAUUACGCUCA | -0.522 ± 0.13 | -0.556 ± 0.16 |
| UCGUAGCAAUAUUACGCUUA | – | -1.1 ± 0.47 |
| UCGUAGCAAUAUUACGCUUC | -3.12 ± 0.48 | – |
| UCGUAGCAAUAUUACGGGCA | -0.422 ± 0.14 | -0.0787 ± 0.13 |
| UCGUAGCAAUAUUACGGGGA | -2.6 ± 0.28 | -1.23 ± 0.23 |
| UCGUAGCAAUAUUACGGGGG | -3.07 ± 0.44 | -2 ± 0.47 |
| UCGUAGCAAUAUUACGUACG | -3.07 ± 0.24 | -1.96 ± 0.19 |
| UCGUAGCAAUAUUACGUAGC | -2.27 ± 0.43 | – |
| UCGUAGCAAUAUUACGUAUG | -2.04 ± 0.14 | -1.93 ± 0.2 |
| UCGUAGCAAUAUUACGUCCG | -0.957 ± 0.074 | -0.517 ± 0.091 |
| UCGUAGCAAUAUUACGUCGC | – | -1.37 ± 0.41 |
| UCGUAGCAAUAUUACGUCUU | -2.7 ± 0.15 | -0.44 ± 0.14 |
| UCGUAGCAAUAUUACGUGAC | -1.99 ± 0.26 | – |
| UCGUAGCAAUAUUACGUUAG | -3.83 ± 0.3 | -2.1 ± 0.46 |
| UCUAAGCAAUAUUACGACCC | – | -0.661 ± 0.44 |
| UCUAAGCAAUAUUACGAGGA | -3.5 ± 0.4 | -2.72 ± 0.44 |

| Sequence | self-splicing fitness (ln) (30 °C) | self-splicing fitness (ln) (37 °C) |
| --- | --- | --- |
| UCUAAGCAAUAUUACGAGGU | -2.8 ± 0.27 | -0.819 ± 0.17 |
| UCUAAGCAAUAUUACGAUUC | -3.14 ± 0.16 | -2.83 ± 0.23 |
| UCUAAGCAAUAUUACGCACG | -1.11 ± 0.19 | -1.8 ± 0.23 |
| UCUAAGCAAUAUUACGCCGG | -1.15 ± 0.13 | -0.186 ± 0.15 |
| UCUAAGCAAUAUUACGCCUA | – | -1.36 ± 0.26 |
| UCUAAGCAAUAUUACGCGAC | – | -2.84 ± 0.36 |
| UCUAAGCAAUAUUACGCGUA | -3.11 ± 0.2 | -2.27 ± 0.23 |
| UCUAAGCAAUAUUACGCUAU | -3.62 ± 0.31 | -3.37 ± 0.28 |
| UCUAAGCAAUAUUACGGAUG | -2.9 ± 0.26 | -1.99 ± 0.29 |
| UCUAAGCAAUAUUACGGAUU | – | -2.31 ± 0.23 |
| UCUAAGCAAUAUUACGGGAA | -2.29 ± 0.22 | -1.76 ± 0.14 |
| UCUAAGCAAUAUUACGGUCU | -3.41 ± 0.21 | -3.34 ± 0.31 |
| UCUAAGCAAUAUUACGGUGA | -0.587 ± 0.099 | -0.245 ± 0.1 |
| UCUAAGCAAUAUUACGUAGA | -1.2 ± 0.098 | -0.771 ± 0.15 |
| UCUAAGCAAUAUUACGUCAA | -2.57 ± 0.24 | -1.77 ± 0.27 |
| UCUAAGCAAUAUUACGUGUG | -1.02 ± 0.075 | -0.603 ± 0.1 |
| UCUAAGCAAUAUUACGUUCA | -2.37 ± 0.17 | -1.56 ± 0.15 |
| UCUCAGCAAUAUUACGACUA | -1.87 ± 0.12 | -1.37 ± 0.12 |
| UCUCAGCAAUAUUACGACUG | -2.79 ± 0.17 | -3.11 ± 0.28 |

Source: the supplement of paper PMC7877785
